Where no end group is shown, it is not given here.

What is called Kd is a measure of binding affinity in units of concentration.

The target in assay [1] is Y3pCNF-CpFd, ferredoxin CpFd from Clostridium pasteurianum with tyrosine Y3 replaced by 4-cyano-L-phenylalanine (holo) (Clostridium pasteurianum) (UniProt P00195). Description: MST; anaerobic; reducing conditions (dithionite); ferredoxin labelled with Alexa Fluor 647.
For assay [2], the target named is ferredoxin PetF from Chlamydomonas reinhardtii, wild type, Alexa Fluor 647-labeled (Chlamydomonas reinhardtii) (UniProt P07839). Briefly: MST; labeled PetF (200 nM) titrated with unlabeled CrHydA1 (0.003–10 µM) with 2 mM dithionite under anaerobic conditions; read-out: concentration-dependent fluorescence quenching of the Alexa Fluor 647 label; 50 mM TRIS pH 8, 50 mM NaCl, 1 mM MgCl2, 0.05 mg/mL BSA, 0.05% Tween20; Monolith NT.115, 22°C.

Assay [3] deals with clostridial 2[4Fe-4S] ferredoxin CpFd from Clostridium pasteurianum, wild type (holo) (Clostridium pasteurianum) (UniProt P00195). Briefly: MST; anaerobic; reducing conditions (dithionite); ferredoxin labelled with Alexa Fluor 647.
Assay [4] deals with T1, [FeFe]-hydrogenase CpI from Clostridium pasteurianum (Clostridium pasteurianum, UniProt P29166 1-574).
T1 construct: [FeFe]-hydrogenase CpI of Clostridium pasteurianum, with H-domain (H-cluster) and F-domain (three [4Fe-4S] clusters, one [2Fe-2S] cluster)
T1 sequence: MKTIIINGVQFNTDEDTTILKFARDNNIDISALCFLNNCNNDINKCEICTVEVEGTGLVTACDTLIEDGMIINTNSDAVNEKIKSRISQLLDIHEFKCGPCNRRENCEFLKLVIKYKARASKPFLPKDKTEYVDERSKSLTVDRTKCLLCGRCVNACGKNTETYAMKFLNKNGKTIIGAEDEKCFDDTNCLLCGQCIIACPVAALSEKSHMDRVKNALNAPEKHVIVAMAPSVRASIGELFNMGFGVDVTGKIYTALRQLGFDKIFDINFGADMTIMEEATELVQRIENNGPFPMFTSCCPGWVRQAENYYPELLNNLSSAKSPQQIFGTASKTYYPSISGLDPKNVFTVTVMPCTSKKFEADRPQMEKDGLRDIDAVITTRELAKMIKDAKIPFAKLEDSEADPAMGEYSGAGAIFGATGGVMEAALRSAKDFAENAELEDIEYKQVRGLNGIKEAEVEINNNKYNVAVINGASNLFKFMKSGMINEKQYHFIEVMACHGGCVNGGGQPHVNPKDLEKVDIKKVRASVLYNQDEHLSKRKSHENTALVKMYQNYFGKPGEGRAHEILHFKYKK
The description is as above. The conditions noted are these: both partners purified.

For “[FeFe]-hydrogenase CpI from Clostridium pasteurianum (from UniProt P29166 1-574) (enzyme)”, the dissociation constant Kd in assay [1] is 11.3 µM.
As to “[FeFe]-hydrogenase CrHydA1 from Chlamydomonas reinhardtii (enzyme)”, the Kd in assay [2] was 1.24 µM; in assay [3], 2.41 µM.

B1: clostridial 2[4Fe-4S] ferredoxin CpFd from Clostridium pasteurianum, wild type (holo) (natural protein)
chain: AYKIADSCVSCGACASECPVNAISQGDSIFVIDADTCIDCGNCANVCPVGAPVQE
modifications: cysteine pairing not given here; also: Alexa Fluor 647 dye label, site not given here, binds two [4Fe-4S] clusters (F and F')
notes: Ferredoxin CpFd of Clostridium pasteurianum, 2[4Fe-4S] type, wild type; Tested reduced (with dithionite) and oxidized (without dithionite); the redox state is told by the assay; also called wild-type CpFd; holo-CpFd; source: E. coli C321.ΔA.opt
In assay [4], B1 yielded a Kd of 12.4 ± 0.97 µM.
